How the values were obtained:
MYC-FLAG-HNF4A = molecular target: T1, MYC-FLAG-HNF4A (Mus musculus, UniProt P49698 1-474); test: EMSA; EMSA: 10 mM Tris-HCl pH 7.5, 1 mM MgCl2, 1 mM DTT, 50 mM KCl, 0.3 mg/ml BSA, 5% glycerol, RT 30 min; 5% native PAGE in 0.5x TBE; conditions: protein: commercial; tags: MYC-FLAG; chain copies: 2; label: Cy5 5'-end; blunt
T1 sequence: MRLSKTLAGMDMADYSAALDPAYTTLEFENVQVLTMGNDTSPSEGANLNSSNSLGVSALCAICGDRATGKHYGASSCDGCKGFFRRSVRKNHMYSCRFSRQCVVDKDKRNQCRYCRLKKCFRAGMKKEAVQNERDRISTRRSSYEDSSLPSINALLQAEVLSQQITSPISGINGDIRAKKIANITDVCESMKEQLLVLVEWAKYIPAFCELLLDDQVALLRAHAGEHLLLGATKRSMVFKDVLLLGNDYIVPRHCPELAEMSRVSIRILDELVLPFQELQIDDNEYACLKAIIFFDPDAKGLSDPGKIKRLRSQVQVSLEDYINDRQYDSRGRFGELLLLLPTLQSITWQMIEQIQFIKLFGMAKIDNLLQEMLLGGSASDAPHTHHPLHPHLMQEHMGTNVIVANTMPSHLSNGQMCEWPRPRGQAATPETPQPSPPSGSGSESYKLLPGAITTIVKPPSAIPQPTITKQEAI

FLAG-SOX4 [1] = molecular target: T2, FLAG-SOX4 (Mus musculus, UniProt Q06831 1-440); test: EMSA; more robust binding than HNF4A; EMSA: 10 mM Tris-HCl pH 7.5, 1 mM MgCl2, 1 mM DTT, 50 mM KCl, 0.3 mg/ml BSA, 5% glycerol, RT 30 min; 5% native PAGE in 0.5x TBE; conditions: protein: recombinant; label: Cy5 5'-end; blunt
T2 sequence (Q06831 whole entry): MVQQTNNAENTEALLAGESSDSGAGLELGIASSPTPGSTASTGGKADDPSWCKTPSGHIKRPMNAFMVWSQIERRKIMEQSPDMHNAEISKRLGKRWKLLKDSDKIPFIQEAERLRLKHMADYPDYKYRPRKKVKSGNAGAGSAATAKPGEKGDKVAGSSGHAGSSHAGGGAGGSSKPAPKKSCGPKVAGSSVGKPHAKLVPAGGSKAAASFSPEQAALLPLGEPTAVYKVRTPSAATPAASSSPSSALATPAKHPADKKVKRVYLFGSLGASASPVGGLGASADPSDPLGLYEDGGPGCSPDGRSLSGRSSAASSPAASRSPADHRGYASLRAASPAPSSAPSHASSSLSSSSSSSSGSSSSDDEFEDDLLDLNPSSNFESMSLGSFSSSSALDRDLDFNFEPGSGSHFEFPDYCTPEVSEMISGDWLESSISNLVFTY

FLAG-SOX4 [2] = molecular target: T2, FLAG-SOX4; test: competition; SOX4 displaces pre-bound HNF4A (30 nM); value is the effective SOX4 concentration; EMSA: 10 mM Tris-HCl pH 7.5, 1 mM MgCl2, 1 mM DTT, 50 mM KCl, 0.3 mg/ml BSA, 5% glycerol, RT 30 min; 5% native PAGE in 0.5x TBE; conditions: protein: recombinant; label: Cy5 5'-end; blunt

Measured: binding result

B1: Cyp2e1 distal enhancer WT (HNF4A motif) (dsDNA)
DNA 1: ATCTCTGGGACAAAGTATAGAGAAG
DNA 2: CTTCTCTATACTTTGTCCCAGAGAT
binds: all assays above
